# B1: circularly permuted human Taspase1 cp-Taspase1_(α41-233/β) (enzyme)
# chain: TVGAVVVDHEGNVAAAVSSGGLALKHPGRVGQAALYGCGCWAENTGAHNPYSTAVSTSGCGEHLVRTILARECSHALQAEDAHQALLETMQNKFISSPFLASEDGVLGGVIVLRSCRCSAEPDSSQNKQTLLVEFLWSHTTESMCVGYMSAQDGKAKTHISRLPPGAVAGQSVAIEGGVCRLEGSGSGGFVLVHAGAGYHSESKAKEYKHVCKRACQKAIEKLQAGALATDAVTAALVELEDSPFTNAGMGSNLNLLGEIECDASIMDGKSLNFGAVGALSGIKNPVSVANRLLCEGQKGKLSAGRIPPCFLVGEGAYRWAVDHGIPSCPPNIMTTRFSLAAFKRNKRKLELAERVDTDFMQLKKRRQSSEKENDSGTLD
# B2: circularly permuted human Taspase1 cp-Taspase1_(α41-183/β) (enzyme)
# chain: TVGAVVVDHEGNVAAAVSSGGLALKHPGRVGQAALYGCGCWAENTGAHNPYSTAVSTSGCGEHLVRTILARECSHALQAEDAHQALLETMQNKFISSPFLASEDGVLGGVIVLRSCRCSAEPDSSQNKQTLLVEFLWSHTTESMCVGYMSAQDGKAKTHISRLPPGAVAGQSVAIEGGVCRLEGSGSGGFVLVHAGAGYHSESKAKEYKHVCKRACQKAIEKLQAGALATDAVTAALVELEDSPFTNAGMGSNLNLLGEIECDASIMDGKSLNFGAVGALSGIKNPVSVANRLLCEGQKGKLSAGRIPPCFLVGEGAYRWAVDHGIPSCP
# Columns and labels:
# dynamic light scattering [1] = molecular target: the molecule itself; test: dynamic light scattering
# dynamic light scattering [2] = molecular target: the molecule itself; test: dynamic light scattering; remark: listed apart in the source
# [3] = molecular target: the molecule itself; test: negative staining electron microscopy
# crystal structure = molecular target: the molecule itself; test: crystal structure
Protein,stoichiometry N (dynamic light scattering [1]),stoichiometry N (dynamic light scattering [2]),stoichiometry N [3],binding result (crystal structure)
B1,6,4,2,
B2,,,,binds

# From doi:10.1101/2020.11.26.400622 (bioRxiv, 2020)
